The values that follow come from patent publication US20210301025A1 (published 2021).

As usually defined, the Kd is the free concentration of one partner at which half of the binding sites on the other are occupied at equilibrium, for simple one-to-one binding. As usually defined, the IC50 is the concentration at which inhibition is half-maximal. What is called EC50 is the concentration at which the effect is half-maximal.

The target of assay [1] is T1, human c-Met on cells (NCI-H441, NCI-H292, U87-MG) (human, UniProt P08581 25-1390). The assay can be described thus: cell-based or functional assay.
Assay [2] has as its target T2, recombinant c-Met extracellular domain (human, UniProt P08581 16-932).
T2 construct: Construct used for SPR is not described further (may be the Fc chimera, as the protocol captures on anti-human Fc)
The assay can be described thus: SPR kinetic analysis as in Example 2. (In general: In SPR one partner is held on a chip, and binding of the other changes the refractive index at the surface.)

Assay [3] concerns the target T3, Recombinant human c-Met Fc chimera (human, UniProt P08581 16-932).
T3 construct: whole c-Met entry named; also called c-Met-Fc fusion protein
The assay can be described thus: competition with biotinylated HGF on plate-coated c-Met-Fc.

The target of assay [4] is T1, human c-Met on cells (NCI-H441, …). The assay can be described thus: cell-based or functional assay. The source holds these as a separate data set.
For assay [5] the target is unchanged. The experiment in a line: NCI-H441 cell binding, anti-His fluorescence. The method, then: Purified FN3 domains (50 μL/well; 0 to 1000 nM) were added to the cells for 1 hour at 4° C. in duplicate plates. Supernatant was removed and cells were washed three times with FACS stain buffer (150 μL/well, BD Biosciences, cat #554657). Cells were incubated with biotinylated-anti HIS antibody (diluted 1:160 in FACS stain buffer, 50 μL/well, R&D Systems, cat # BAM050) for 30 minutes at 4° C. Cells were washed three times with FACS stain buffer (150 μL/well), after which wells were incubated with anti mouse IgG1-Alexa 488 conjugated antibody (diluted 1:80 in FACS stain buffer, 50 μL/well, Life Technologies, cat # A21121) for 30 minutes at 4° C. Cells were washed three times with FACS stain buffer (150 μL/well) and left in FACS stain buffer (50 μL/well). Total fluorescence was determined using an Acumen eX3 reader. Data were plotted as raw fluorescence signal against the logarithm of the FN3 domain molar concentration and fitted to a sigmoidal dose-response curve with variable slope using GraphPad Prism 4 (GraphPad Software) to calculate EC₅₀ values.

Assay [6] addresses EGFR (form used in the assay not stated) (human, UniProt P00533 25-645, limits assumed). The assay can be described thus: affinity quoted in text, assay not stated.

B1: P114AR5P74-A5 (designed binder, not shown: small tags and cut ends)
chain: LPAPKNLVVSRVTEDSARLSWTAPDAAFDSFWIRYDEVVVGGEAIVLTVPGSERSYDLTGLKPGTEYYVNILGVKGGSISVPLSAIFTT
Regarding B1, the “IC50 of inhibition of c-Met phosphorylation, NCI-H292 cells” value in assay [1] was determined as 610 nM. Further, in assay [2], the Kd is 10.1 nM. In assay [3], the IC50 worked out at 5.2 nM. Moreover, in assay [4], the “Inhibition of proliferation of U87-MG cells IC50” value stood at 464 nM and the “pMet inhibition in H441 cells IC50” value worked out at 1.08 µM. In assay [5], this molecule yielded a concentration giving a half-maximal response (EC50) of 18.7 nM.

B2: P53A1R5-17v2 (designed binder)
chain: LPAPKNLVVSEVTEDSARLSWADPHGFYDSFLIQYQESEKVGEAIVLTVPGSERSYDLTGLKPGTEYTVSIYGVHNVYKDTNMRGLPLSAIFTT
With B2, the Kd in assay [6] worked out at 1.9 nM.
